Experimental data taken from IntAct's records for PubMed 21903585.

B1: RAD51-associated protein 1 (Homo sapiens), Q96B01-2 (parent)
chain: MVRPVRHKKPVNYSQFDHSDSDDDFVSATVPLNKKSRTAPKELKQDKPKPNLNNLRKEEIPVQEKTPKKRMALDDKLYQRDLEVALALSVKELPTVTTNVQNSQDKSIEKHGSSKIETMNKSPHISNCSVASDYLDLDKITVEDDVGGVQGKRKAASKAAAQQRKILLEGSDGDSANDTEPDFAPGEDSEDDSDFCESEDNDEDFSMRKSKVKEIKKKEVKVKSPVEKKEKKSKSKCNALVTSVDSAPAAVKSESQSLPKKVSLSSDTTRKPLEIRSPSAESKKPKWVPPAASGGSRSSSSPLVVVSVKSPNQSLRLGLSRLARVKPLHPNATST
partner: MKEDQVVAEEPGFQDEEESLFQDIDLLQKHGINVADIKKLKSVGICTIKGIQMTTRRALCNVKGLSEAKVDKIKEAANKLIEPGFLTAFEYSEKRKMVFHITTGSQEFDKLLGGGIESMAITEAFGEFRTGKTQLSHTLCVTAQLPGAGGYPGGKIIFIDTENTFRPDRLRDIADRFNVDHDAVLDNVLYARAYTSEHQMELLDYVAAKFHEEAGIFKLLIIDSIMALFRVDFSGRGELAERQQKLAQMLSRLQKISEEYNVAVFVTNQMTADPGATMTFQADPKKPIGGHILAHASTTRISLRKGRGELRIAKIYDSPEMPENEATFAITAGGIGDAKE

Variants of: B1
Settings: with dmc1_human DMC1, Q14565

| Variant | effect of a mutation on the interaction |
| --- | --- |
| MVRPVRHKKPVNYSQFDHSDSDDDFVSATVPLNKKSRTAPKELKQDKPKPNLNNLRKEEIPVQEKTPKKRMALDDKLYQRDLEVALALSVKELPTVTTNVQNSQDKSIEKHGSSKIETMNKSPHISNCSVASDYLDLDKITVEDDVGGVQGKRKAASKAAAQQRKILLEGSDGDSANDTEPDFAPGEDSEDDSDFCESEDNDEDFSMRKSKVKEIKKKEVKVKSPVEKKEKKSKSKCNALVTSVDSAPAAVKSESQSLPKKVSLSSDTTRKPLEIRSPSAESKKPKAVPPAASGGSRSSSSPLVVVSVKSPNQSLRLGLSRLARVKPLHPNATST [W287A] | disrupting interaction |
